Source: patent US9333268B2, “Methods of treatment with arginine deiminase” (Polaris Group, priority 2012, dated 2016)

Experiments:
SK-LC-13 cells [1] = assay: Western blot of active caspase 3; format: cell-based, human
Description: Following washing, the membranes were then probed with the appropriate secondary antibody before proteins were finally visualized using ECL reagent (Perkin-Elmer, Fremont Calif., USA).
(§1) In order to determine the possible mechanism of the antiproliferative effects of ADI-PEG 20 a FACS analysis of apoptosis by sub-G1 DNA content was performed. Cells were treated for 72 h before the analysis was performed.

SK-LC-13 cells [2] = assay: FACS analysis of apoptosis by sub-G1 DNA content (propidium iodide); format: cell-based, human
Description: Apoptosis was measured by FACS of propidium-iodide-stained cells as detailed by Riccardi et al (Riccardi and Nicoletti, Nat Protoc 1(3):1458-1461, 2006). Cells were plated in 24-well plates and treated with ADI-PEG 20 for […]. Cells were then harvested, washed and fixed in 70% ethanol. DNA was then stained using 20 μg ml^−1 propidium iodide containing 10 μgml^−1 DNAse-free RNAse A (Sigma-Aldrich). Cells were then read on a BD FACSCalibur (BD Biosciences) and analyzed using Flow Jo Software (Tree Star, Ashland, Oreg., USA).
as §1

[3] = Serum ADI-PEG 20 levels by ELISA; format: in vivo, mice
Description: In order to determine the effect of ADI-PEG 20 treatment on systemic arginine levels, mice sera were analyzed using high-performance liquid chromatography (HPLC). L-arginine and L-citrulline were resolved with a Pickering Laboratories PCX 5200 post-column derivatization instrument (Pickering Laboratories, Mountain View, Calif., USA) at 39° C. reaction temperature and a fluorescence detector. […] Total ADI-PEG 20 levels were measured by ELISA, as described previously (Holtsberg et al, J Control Release 80(1-3):259-271, 2002).

[4] = system: ASS high osteosarcoma cell line MG63; assay: Sarcoma cell line panel treated with ADI-PEG 20; format: cell-based
ASS-negative AML lines = assay: Viability of AML cell lines treated with ADI-PEG 20; format: cell-based
Description: (§2) In this example, it was determined whether ASS negativity would predict for the efficacy of pegylated arginine deiminase (ADI-PEG 20) using AML cell lines and primary AML samples. A lack of ASS protein was identified in three of seven leukemic cell lines (K562, Kasumi and KG-1) and in all nine samples from patients with cytogenetically normal and abnormal karotype AML. Methylation of the ASS promoter correlated with reduced levels of ASS mRNA and absence of ASS expression.
(§3) Primary ASS-negative AML samples with good engraftment in NOD/SCID mice have been identified and studies of the efficacy of ADI-PEG 20 using this primary AML xenograft model have begun. Based on the results described herein and the potential efficacy with low toxicity of arginine deprivation in humans, a phase II trial of ADI-PEG 20 has been planned in patients with relapsed AML.

[5] = system: ASS-positive control lines, Fujioka and U937; assay: as above; format: cell-based
Description: as §2, §3

Caki-1 xenografts = assay: Caki-1 renal cell carcinoma xenografts in BALB/c-nude mice; format: in vivo; details: intramuscular
Description: The activity of ADI-PEG 20 was assessed in mice bearing Caki-1 (ATCC No. HTB-46™) xenografts. Renal cell carcinoma Caki-1 xenografts were established in female BALB/c-nude mice, 3-4 weeks of age with a body weight of 20 g (SLAC, Shanghai, China). To establish the tumors, 5×10^6 cells in media were mixed 1:1 with Matrigel High Concentration (BD Biosciences) and injected subcutaneously in the abdominal area of the mice. Tumor growth was regularly measured and tumor volume calculated using the formula (TV=(length×width^2)/2). When tumors reached an approximate volume of 125 mm^3, ADI-PEG20 was administered at doses level of 160, 320 and 640 IU/m^2 once every week for four weeks by intramuscular injection. Each study group had 9 mice. Mice were euthanized when tumors reached an approximate volume of 1100 mm^3. […] More than 80% tumor inhibition was achieved when 640 IU/m^2 was used.
In an additional experiment, the activity of ADI-PEG 20 as either a single agent or in combination with rapamycin was assessed in mice bearing Caki-1 xenograft. Renal cell carcinoma xenografts were established in female BALB/c-nude mice, 3-4 weeks of age weighing about 20 g (SLAC, Shanghai, China). […] Tumor growth was regularly measured and tumor volume calculated using the formula (TV=(length×width^2)/2). […]

B1: ADI-PEG 20: arginine deiminase (ADI) formulated with PEG of 20,000 m.w. (protein)
chain: MSVFDSKFNGIHVYSEIGELETVLVHEPGREIDYITPARLDELLFSAILESHDARKEHQSFVKIMKDRGINVVELTDLVAETYDLASKAAKEEFIETFLEETVPVLTEANKEAVRAFLLSKPTHEMVEFMMSGITKYELGVESENELIVDPMPNLYFTRDPFASVGNGVTIHFMRYIVRRRETLFARFVFRNHPKLVKTPWYYDPAMKMSIEGGDVFIYNNETLVVGVSERTDLDTITLLAKNIKANKEVEFKRIVAINVPKWTNLMHLDTWLTMLDKNKFLYSPIANDVFKFWDYDLVNGGAEPQPQLNGLPLDKLLASIINKEPVLIPIGGAGATEMEIARETNFDGTNYLAIKPGLVIGYDRNEKTNAALKAAGITVLPFHGNQLSLGMGNARCMSMPLSRKDVKW
In the case of B1, the activation of caspases (SK-LC-13 cells [1]) is reported as “no activation of caspases”, the “cells in apoptosis (sub-G1 DNA content)” value (SK-LC-13 cells [2]; 1.0 mIU ml^−1, 72 h) is reported as roughly 6% and the “cells in apoptosis (sub-G1 DNA content)” value (SK-LC-13 cells [2]; 10 mIU ml^−1, 72 h) is reported as roughly 16%. For the same molecule, the “ADI-PEG 20 serum levels after end of dosing” value ([3]; administered only up to day 20) was “return to baseline levels by day 40”, the “ADI-PEG 20 serum levels” value ([3]; days 0, 12, 40, 1, 2, 5 IU) was “dose dependent” and the cell division [4] was “continued to divide”. For the same molecule, the viability (ASS-negative AML lines) was “reduced the viability”, the “viability (response to drug-induced arginine deprivation)” value [5] was “resistant” and the tumor growth (Caki-1 xenografts; 160, 320 and 640 IU/m^2 weekly for four weeks) was “inhibited tumor growth in a dose dependent manner”. For the same molecule, the tumor inhibition (Caki-1 xenografts; 640 IU/m^2 weekly for four weeks) was “More than 80%”.
